Assay results reported in PMC10351726 (2023).
Changes are numbered by the printed parent chain. One block for each binder: values may come before it.

Molecular target: HER2-ECD biotinylated at single site (human, UniProt P04626 23-652, biotinylated at single site)
Assay: SPR

Kd: 0.183 nM
B1: NanoMab-02 (NM-02) (VHH)
VHH: QVQLQESGGGSVQAGETLRLSCTASGFTFDDSDMGWYRQAPGNECELVSSISSDGSTYYADSVKGRFTISQDNAKNTVYLQMNSLKPEDTGVYYCAAEGHRYELGTCAALDYWGRGTQVTVSS

Kd: 0.434 nM
B2: humanised NM-02 variant E (VHH)
VHH: B1 VHH with S11L, A14P, E16G, T17S, T23S, A74S, V78L, K86R, P87A, Q118L
